According to patent US20230174598A1 (UNIVERSITY OF FLORIDA RESEARCH FOUNDATION, published 2023):

The molecules below were run against bovine enolase-1 (bovine, UniProt Q9XSJ4 1-434, AlexaFluor-546 maleimide on reactive cysteines (pulldown assay only; unlabeled in the quench and activity assays)) (assay: KI quench protection of mBBr-labeled arrestin-1; 0.25 µM arrestin-1, 5 µM (20-fold) enolase-1).
Method: C. Quenching assay. Cysteine mutants of arrestin-1 were labeled with monobromobimane (mBBr, ThermoFisher), reacting the arrestin-1 protein with 100-fold molar excess of the fluorescent label for two hours at room temperature. The unreacted label was removed by dialyzing against three sequential changes of 500-volumes of LAP200 buffer. […] Fluorescence quenching of the mBBr fluorophore was performed using 0.25 μM mBBr-labeled arrestin-1 with 100 mM potassium iodide in the presence or absence of 5 μM bovine enolase-1 that had been heterologously expressed and purified as previously described for arrestin-1, monitoring fluorescence emission at 470 nm. To determine the degree to which enolase-1 shielded a residue from quenching by potassium iodide, a protection factor was calculated as follows: […]
C. Mapping interaction of arrestin-1 with enolase-1. […] The fluorescence emission of the mBBr-labeled arrestin-1 with and without potassium iodide was measured to determine the range of quenching by KI. The fluorescence emission quench by KI with and without enolase-1 was then measured. A quench protection factor was calculated as described in the experimental procedures (Table 2). […] When mapped onto the surface of the arrestin-1 structure, these residues largely mapped to a single surface along the “bottom” of the arrestin protein (FIG. 2B).

Sequence of bovine enolase-1 (Q9XSJ4 whole entry): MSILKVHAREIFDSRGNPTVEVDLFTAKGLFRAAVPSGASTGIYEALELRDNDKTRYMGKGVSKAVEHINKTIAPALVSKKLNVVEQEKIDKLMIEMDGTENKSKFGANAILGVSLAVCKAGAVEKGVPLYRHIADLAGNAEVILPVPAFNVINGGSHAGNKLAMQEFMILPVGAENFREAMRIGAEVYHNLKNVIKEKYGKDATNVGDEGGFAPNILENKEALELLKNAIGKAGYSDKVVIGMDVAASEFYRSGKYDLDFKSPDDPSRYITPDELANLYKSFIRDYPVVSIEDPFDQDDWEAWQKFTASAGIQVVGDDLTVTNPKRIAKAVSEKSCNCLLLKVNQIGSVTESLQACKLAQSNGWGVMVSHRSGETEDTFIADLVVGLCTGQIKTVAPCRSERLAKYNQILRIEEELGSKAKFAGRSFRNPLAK

Molecule	F(A+E+K) (fluorescence with enolase-1 and KI)	Pf (quench protection factor)
Y125C arrestin-1 (bovine, His(6), C63A/C143A) labeled with monobromobimane (from UniProt P08168 2-404)	14000	0.012
I72C arrestin-1 (bovine, His(6), C63A/C143A) labeled with monobromobimane (from UniProt P08168 2-404)	630	0.002
S231C arrestin-1 (bovine, His(6), C63A/C143A) labeled with monobromobimane (from UniProt P08168 2-404)	695	0.002
S199C arrestin-1 (bovine, His(6), C63A/C143A) labeled with monobromobimane (from UniProt P08168 2-404)	636	-0.001
S86C arrestin-1 (bovine, His(6), C63A/C143A) labeled with monobromobimane (from UniProt P08168 2-404)	6160	0.073
D317C arrestin-1 (bovine, His(6), C63A/C143A) labeled with monobromobimane (from UniProt P08168 2-404)	11500	0.002
E218C arrestin-1 (bovine, His(6), C63A/C143A) labeled with monobromobimane (other, monobromobimane (mBBr) on Cys 218, Cysteine-substitution mutant, made in Pichia pastoris) MHHHHHHKANKPAPNHVIFKKISRDKSVTIYLGKRDYIDHVERVEPVDGVVLVDPELVKGKRVYVSLTAAFRYGQEDIDVMGLSFRRDLYFSQVQVFPPVGASGATTRLQESLIKKLGANTYPFLLTFPDYLPCSVMLQPAPQDVGKSAGVDFEIKAFATHSTDVEEDKIPKKSSVRLLIRKVQHAPRDMGPQPRAEASWQFFMSDKPLRLAVSLSKEIYYHGCPIPVTVAVTNSTEKTVKKIKVLVEQVTNVVLYSSDYYIKTVAAEEAQEKVPPNSSLTKTLTLVPLLANNRERRGIALDGKIKHEDTNLASSTIIKEGIDKTVMGILVSYQIKVKLTVSGLLGELTSSEVATEVPFRLMHPQPEDPDTAKESFQDENFVFEEFARQNLKDAGEYKEEKTDQEAAMDE	9500	1.08
E50C arrestin-1 (bovine, His(6), C63A/C143A) labeled with monobromobimane (other, monobromobimane (mBBr) on Cys 50, Cysteine-substitution mutant, made in Pichia pastoris) MHHHHHHKANKPAPNHVIFKKISRDKSVTIYLGKRDYIDHVERVEPVDGVVLVDPCLVKGKRVYVSLTAAFRYGQEDIDVMGLSFRRDLYFSQVQVFPPVGASGATTRLQESLIKKLGANTYPFLLTFPDYLPCSVMLQPAPQDVGKSAGVDFEIKAFATHSTDVEEDKIPKKSSVRLLIRKVQHAPRDMGPQPRAEASWQFFMSDKPLRLAVSLSKEIYYHGEPIPVTVAVTNSTEKTVKKIKVLVEQVTNVVLYSSDYYIKTVAAEEAQEKVPPNSSLTKTLTLVPLLANNRERRGIALDGKIKHEDTNLASSTIIKEGIDKTVMGILVSYQIKVKLTVSGLLGELTSSEVATEVPFRLMHPQPEDPDTAKESFQDENFVFEEFARQNLKDAGEYKEEKTDQEAAMDE	8140	0.297
K28C arrestin-1 (bovine, His(6), C63A/C143A) labeled with monobromobimane (other, monobromobimane (mBBr) on Cys 28, Cysteine-substitution mutant, made in Pichia pastoris) MHHHHHHKANKPAPNHVIFKKISRDKSVTIYLGCRDYIDHVERVEPVDGVVLVDPELVKGKRVYVSLTAAFRYGQEDIDVMGLSFRRDLYFSQVQVFPPVGASGATTRLQESLIKKLGANTYPFLLTFPDYLPCSVMLQPAPQDVGKSAGVDFEIKAFATHSTDVEEDKIPKKSSVRLLIRKVQHAPRDMGPQPRAEASWQFFMSDKPLRLAVSLSKEIYYHGEPIPVTVAVTNSTEKTVKKIKVLVEQVTNVVLYSSDYYIKTVAAEEAQEKVPPNSSLTKTLTLVPLLANNRERRGIALDGKIKHEDTNLASSTIIKEGIDKTVMGILVSYQIKVKLTVSGLLGELTSSEVATEVPFRLMHPQPEDPDTAKESFQDENFVFEEFARQNLKDAGEYKEEKTDQEAAMDE	17200	0.732
D362C arrestin-1 (bovine, His(6), C63A/C143A) labeled with monobromobimane (other, monobromobimane (mBBr) on Cys 362, Cysteine-substitution mutant, made in Pichia pastoris) MHHHHHHKANKPAPNHVIFKKISRDKSVTIYLGKRDYIDHVERVEPVDGVVLVDPELVKGKRVYVSLTAAFRYGQEDIDVMGLSFRRDLYFSQVQVFPPVGASGATTRLQESLIKKLGANTYPFLLTFPDYLPCSVMLQPAPQDVGKSAGVDFEIKAFATHSTDVEEDKIPKKSSVRLLIRKVQHAPRDMGPQPRAEASWQFFMSDKPLRLAVSLSKEIYYHGEPIPVTVAVTNSTEKTVKKIKVLVEQVTNVVLYSSDYYIKTVAAEEAQEKVPPNSSLTKTLTLVPLLANNRERRGIALDGKIKHEDTNLASSTIIKEGIDKTVMGILVSYQIKVKLTVSGLLGELTSSEVATEVPFRLMHPQPECPDTAKESFQDENFVFEEFARQNLKDAGEYKEEKTDQEAAMDE	5490	1.2
E302C arrestin-1 (bovine, His(6), C63A/C143A) labeled with monobromobimane (other, monobromobimane (mBBr) on Cys 302, Cysteine-substitution mutant, made in Pichia pastoris) MHHHHHHKANKPAPNHVIFKKISRDKSVTIYLGKRDYIDHVERVEPVDGVVLVDPELVKGKRVYVSLTAAFRYGQEDIDVMGLSFRRDLYFSQVQVFPPVGASGATTRLQESLIKKLGANTYPFLLTFPDYLPCSVMLQPAPQDVGKSAGVDFEIKAFATHSTDVEEDKIPKKSSVRLLIRKVQHAPRDMGPQPRAEASWQFFMSDKPLRLAVSLSKEIYYHGEPIPVTVAVTNSTEKTVKKIKVLVEQVTNVVLYSSDYYIKTVAAEEAQEKVPPNSSLTKTLTLVPLLANNRERRGIALDGKIKHCDTNLASSTIIKEGIDKTVMGILVSYQIKVKLTVSGLLGELTSSEVATEVPFRLMHPQPEDPDTAKESFQDENFVFEEFARQNLKDAGEYKEEKTDQEAAMDE	3680	0.772

Results, then the molecule that gave them:

F(A+E+K) (fluorescence with enolase-1 and KI)	Pf (quench protection factor)	Molecule
953	0.134	E393C arrestin-1 (bovine, His(6), C63A/C143A) labeled with monobromobimane (from UniProt P08168 2-404)
778	-0.001	V139C arrestin-1 (bovine, His(6), C63A/C143A) labeled with monobromobimane (from UniProt P08168 2-404)
14000	0.012	W194C arrestin-1 (bovine, His(6), C63A/C143A) labeled with monobromobimane (from UniProt P08168 2-404)
730	0.011	S251C arrestin-1 (bovine, His(6), C63A/C143A) labeled with monobromobimane (from UniProt P08168 2-404)
600	-0.011	Y25C arrestin-1 (bovine, His(6), C63A/C143A) labeled with monobromobimane (from UniProt P08168 2-404)
963	-0.005	R18C arrestin-1 (bovine, His(6), C63A/C143A) labeled with monobromobimane (from UniProt P08168 2-404)
3460	0.109	A113C arrestin-1 (bovine, His(6), C63A/C143A) labeled with monobromobimane (other, monobromobimane (mBBr) on Cys 113, Cysteine-substitution mutant, made in Pichia pastoris) MHHHHHHKANKPAPNHVIFKKISRDKSVTIYLGKRDYIDHVERVEPVDGVVLVDPELVKGKRVYVSLTAAFRYGQEDIDVMGLSFRRDLYFSQVQVFPPVGASGATTRLQESLIKKLGCNTYPFLLTFPDYLPCSVMLQPAPQDVGKSAGVDFEIKAFATHSTDVEEDKIPKKSSVRLLIRKVQHAPRDMGPQPRAEASWQFFMSDKPLRLAVSLSKEIYYHGEPIPVTVAVTNSTEKTVKKIKVLVEQVTNVVLYSSDYYIKTVAAEEAQEKVPPNSSLTKTLTLVPLLANNRERRGIALDGKIKHEDTNLASSTIIKEGIDKTVMGILVSYQIKVKLTVSGLLGELTSSEVATEVPFRLMHPQPEDPDTAKESFQDENFVFEEFARQNLKDAGEYKEEKTDQEAAMDE
11000	0.314	K53C arrestin-1 (bovine, His(6), C63A/C143A) labeled with monobromobimane (other, monobromobimane (mBBr) on Cys 53, Cysteine-substitution mutant, made in Pichia pastoris) MHHHHHHKANKPAPNHVIFKKISRDKSVTIYLGKRDYIDHVERVEPVDGVVLVDPELVCGKRVYVSLTAAFRYGQEDIDVMGLSFRRDLYFSQVQVFPPVGASGATTRLQESLIKKLGANTYPFLLTFPDYLPCSVMLQPAPQDVGKSAGVDFEIKAFATHSTDVEEDKIPKKSSVRLLIRKVQHAPRDMGPQPRAEASWQFFMSDKPLRLAVSLSKEIYYHGEPIPVTVAVTNSTEKTVKKIKVLVEQVTNVVLYSSDYYIKTVAAEEAQEKVPPNSSLTKTLTLVPLLANNRERRGIALDGKIKHEDTNLASSTIIKEGIDKTVMGILVSYQIKVKLTVSGLLGELTSSEVATEVPFRLMHPQPEDPDTAKESFQDENFVFEEFARQNLKDAGEYKEEKTDQEAAMDE
19200	0.787	D183C arrestin-1 (bovine, His(6), C63A/C143A) labeled with monobromobimane (other, monobromobimane (mBBr) on Cys 183, Cysteine-substitution mutant, made in Pichia pastoris) MHHHHHHKANKPAPNHVIFKKISRDKSVTIYLGKRDYIDHVERVEPVDGVVLVDPELVKGKRVYVSLTAAFRYGQEDIDVMGLSFRRDLYFSQVQVFPPVGASGATTRLQESLIKKLGANTYPFLLTFPDYLPCSVMLQPAPQDVGKSAGVDFEIKAFATHSTDVEEDKIPKKSSVRLLIRKVQHAPRCMGPQPRAEASWQFFMSDKPLRLAVSLSKEIYYHGEPIPVTVAVTNSTEKTVKKIKVLVEQVTNVVLYSSDYYIKTVAAEEAQEKVPPNSSLTKTLTLVPLLANNRERRGIALDGKIKHEDTNLASSTIIKEGIDKTVMGILVSYQIKVKLTVSGLLGELTSSEVATEVPFRLMHPQPEDPDTAKESFQDENFVFEEFARQNLKDAGEYKEEKTDQEAAMDE
